Values of other authors in publication PMC3135726.

Legend:
[1] = biological target: Snurportin1 IBB (Homo sapiens) (UniProt O95149)
[2] = biological target: Importin-α IBB (Homo sapiens) (UniProt P52292)
PTHrP (Homo sapiens) = PTHrP (Homo sapiens) (UniProt P12272)
[3] = biological target: hnRNP M PY-NLS (Homo sapiens) (UniProt P52272)
[4] = biological target: hnRNP A1 PY-NLS (Homo sapiens) (UniProt P09651)
Chain of hnRNP A1 PY-NLS (Homo sapiens) (P09651 320-357): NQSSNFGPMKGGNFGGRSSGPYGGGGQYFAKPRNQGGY

Chain of Importin-β (Q14974 whole entry): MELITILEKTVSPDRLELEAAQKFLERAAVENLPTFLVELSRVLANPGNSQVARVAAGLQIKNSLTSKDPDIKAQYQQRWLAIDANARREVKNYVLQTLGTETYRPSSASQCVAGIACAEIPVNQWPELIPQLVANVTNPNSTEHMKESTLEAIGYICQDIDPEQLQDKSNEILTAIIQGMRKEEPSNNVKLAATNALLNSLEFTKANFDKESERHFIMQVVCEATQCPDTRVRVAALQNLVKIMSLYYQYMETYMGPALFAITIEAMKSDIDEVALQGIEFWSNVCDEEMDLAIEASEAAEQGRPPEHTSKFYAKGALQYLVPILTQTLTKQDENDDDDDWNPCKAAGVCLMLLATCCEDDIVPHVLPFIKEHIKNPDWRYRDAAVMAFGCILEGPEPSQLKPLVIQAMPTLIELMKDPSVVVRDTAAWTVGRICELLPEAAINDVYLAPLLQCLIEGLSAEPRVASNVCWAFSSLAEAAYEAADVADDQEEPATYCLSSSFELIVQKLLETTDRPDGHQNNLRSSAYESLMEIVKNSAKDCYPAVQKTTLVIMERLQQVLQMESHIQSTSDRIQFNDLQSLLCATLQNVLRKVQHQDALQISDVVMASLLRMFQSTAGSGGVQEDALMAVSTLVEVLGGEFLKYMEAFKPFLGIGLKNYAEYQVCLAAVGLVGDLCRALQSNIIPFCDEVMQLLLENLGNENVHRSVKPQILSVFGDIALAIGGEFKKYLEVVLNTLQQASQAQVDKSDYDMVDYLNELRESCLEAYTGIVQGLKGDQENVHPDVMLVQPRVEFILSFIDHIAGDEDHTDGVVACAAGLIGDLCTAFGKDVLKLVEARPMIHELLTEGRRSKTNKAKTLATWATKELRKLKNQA
Chain of Kapβ2 (Q92973 whole entry): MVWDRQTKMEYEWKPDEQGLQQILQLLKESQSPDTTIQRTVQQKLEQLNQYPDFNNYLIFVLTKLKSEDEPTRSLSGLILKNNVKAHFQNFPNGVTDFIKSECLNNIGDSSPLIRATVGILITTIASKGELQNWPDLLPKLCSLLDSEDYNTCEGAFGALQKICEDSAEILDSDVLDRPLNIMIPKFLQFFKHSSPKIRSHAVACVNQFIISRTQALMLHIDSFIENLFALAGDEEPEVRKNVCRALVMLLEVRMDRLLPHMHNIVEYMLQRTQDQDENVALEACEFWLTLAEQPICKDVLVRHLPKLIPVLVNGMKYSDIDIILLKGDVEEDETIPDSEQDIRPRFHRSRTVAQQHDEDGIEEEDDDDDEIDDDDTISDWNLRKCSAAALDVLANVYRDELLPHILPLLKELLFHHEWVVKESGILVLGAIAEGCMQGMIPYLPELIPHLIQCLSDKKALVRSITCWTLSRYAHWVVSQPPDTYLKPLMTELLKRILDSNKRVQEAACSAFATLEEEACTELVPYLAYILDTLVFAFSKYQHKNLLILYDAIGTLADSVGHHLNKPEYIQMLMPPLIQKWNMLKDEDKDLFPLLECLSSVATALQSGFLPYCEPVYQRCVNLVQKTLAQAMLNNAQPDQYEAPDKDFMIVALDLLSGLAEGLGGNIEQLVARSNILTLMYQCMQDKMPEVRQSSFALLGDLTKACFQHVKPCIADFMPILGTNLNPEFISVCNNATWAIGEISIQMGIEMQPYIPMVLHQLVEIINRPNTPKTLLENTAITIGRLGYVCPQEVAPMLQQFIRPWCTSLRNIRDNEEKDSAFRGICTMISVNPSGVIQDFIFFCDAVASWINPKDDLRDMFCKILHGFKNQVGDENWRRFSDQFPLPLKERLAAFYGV
Chain of hnRNP M PY-NLS (Homo sapiens) (P52272 41-70): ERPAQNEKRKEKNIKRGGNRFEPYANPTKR
Chain of Snurportin1 IBB (Homo sapiens) (O95149 8-76): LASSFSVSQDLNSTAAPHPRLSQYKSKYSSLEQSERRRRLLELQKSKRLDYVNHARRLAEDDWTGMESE
Chain of PTHrP (Homo sapiens) (P12272 37-72): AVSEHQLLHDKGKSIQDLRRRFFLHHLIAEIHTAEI

| Kd [1] | Kd [2] | Kd (PTHrP (Homo sapiens)) | Kd [3] | Kd [4] | Substance |
| --- | --- | --- | --- | --- | --- |
| 2 nM | 2 nM | 2 nM |  |  | Importin-β (from UniProt Q14974) |
|  |  |  | 10 nM | 42 nM | Kapβ2 (from UniProt Q92973) |
